One block for each binder: values may come before it.
Biological target: T1, Ca2+-calmodulin (of the unpublished KD) ( (rat cDNA cloned), UniProt P0DP29 1-149)
T1 construct: also called Ca2+-CaM
Assay: not stated; unpublished ('A.A. in preparation'); affinity of the Kv7 CaM-binding site for Ca2+-CaM

Kd: ~25 nM
B1: Kv7.2 CaM-binding site (construct of the unpublished KD not stated) (domain or fragment)
chain: not shown
notes: the construct may be that of m1

Kd: ~25 nM
B2: Kv7.3 CaM-binding site (construct of the unpublished KD not stated) (domain or fragment)
chain: not shown

— article PMC3182250 (PLoS ONE, 2011)
